Measured values reported in paper doi:10.64898/2025.12.26.696629.
Read-outs that look alike come from different tables or passages of the source.

Legend:
[1] = molecular target: Mtb SufR_(6-229)-His6 (Mycobacterium tuberculosis H37Rv); experiment: cryo-EM structure
SufR-R75M = molecular target: T1, SufR-R75M (Mycobacterium tuberculosis H37Rv, UniProt O53151 30-253, R99M); experiment: EMSA
T1 sequence: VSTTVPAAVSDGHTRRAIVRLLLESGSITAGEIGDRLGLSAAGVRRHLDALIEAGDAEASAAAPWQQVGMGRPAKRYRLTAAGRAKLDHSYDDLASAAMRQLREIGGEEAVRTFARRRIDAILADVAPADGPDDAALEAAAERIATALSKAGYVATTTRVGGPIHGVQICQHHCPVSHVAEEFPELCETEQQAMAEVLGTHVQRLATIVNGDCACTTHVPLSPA

SufR-M2 (AT-hook mutant) = molecular target: T2, SufR-M2 (AT-hook mutant) (Mycobacterium tuberculosis H37Rv, UniProt O53151 30-253, R99A;R101A); experiment: EMSA
T2 sequence: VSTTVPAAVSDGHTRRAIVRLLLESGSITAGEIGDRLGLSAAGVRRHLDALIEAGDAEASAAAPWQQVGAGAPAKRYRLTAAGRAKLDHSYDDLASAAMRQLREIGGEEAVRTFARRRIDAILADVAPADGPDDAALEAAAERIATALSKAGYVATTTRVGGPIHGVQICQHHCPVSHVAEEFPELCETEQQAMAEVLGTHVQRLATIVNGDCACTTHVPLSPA

[2] = molecular target: T3, SufR-M1 (RRH motif mutant) (Mycobacterium tuberculosis H37Rv, UniProt O53151 30-253, R74A;R75A;H76A); experiment: EMSA
T3 sequence: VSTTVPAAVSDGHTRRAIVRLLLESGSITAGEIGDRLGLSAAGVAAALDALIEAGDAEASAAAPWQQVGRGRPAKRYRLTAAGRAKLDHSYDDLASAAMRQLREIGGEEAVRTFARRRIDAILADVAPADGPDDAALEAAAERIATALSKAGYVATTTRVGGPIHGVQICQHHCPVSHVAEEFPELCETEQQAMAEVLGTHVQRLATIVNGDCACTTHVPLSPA

SufR-R51A = molecular target: T4, SufR-R51A (Mycobacterium tuberculosis H37Rv, UniProt O53151 30-253, R75A); experiment: EMSA
T4 sequence: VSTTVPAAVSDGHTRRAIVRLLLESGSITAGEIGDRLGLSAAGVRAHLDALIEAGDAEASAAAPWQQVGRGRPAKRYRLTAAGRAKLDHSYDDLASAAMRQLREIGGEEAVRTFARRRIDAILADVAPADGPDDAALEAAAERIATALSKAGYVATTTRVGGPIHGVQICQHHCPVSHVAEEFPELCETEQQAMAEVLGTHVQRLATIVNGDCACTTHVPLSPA

[3] = molecular target: T5, SufR6-229-His6 (holo, [4Fe-4S]) (Mycobacterium tuberculosis H37Rv, UniProt O53151 30-253); experiment: EMSA
T5 sequence: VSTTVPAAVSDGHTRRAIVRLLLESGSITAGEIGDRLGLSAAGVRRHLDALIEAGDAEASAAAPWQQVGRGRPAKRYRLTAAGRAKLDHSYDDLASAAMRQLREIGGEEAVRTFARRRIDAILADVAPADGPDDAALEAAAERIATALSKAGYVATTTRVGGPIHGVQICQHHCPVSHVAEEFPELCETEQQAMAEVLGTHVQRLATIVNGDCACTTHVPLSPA

[4] = molecular target: T5, SufR6-229-His6 (holo, [4Fe-4S]); experiment: EMSA; remark: listed apart in the source

Molecule: Mtb SufR_(6-229)-His6 (domain or fragment)
- stoichiometry N [1]: 2

B1: PsufR 50-bp (dsDNA)
DNA 1: CCGATCAACGGAATTTTGTCACACTGATGTTGTGAAAATCCCGGCGGTCT
DNA 2: AGACCGCCGGGATTTTCACAACATCAGTGTGACAAAATTCCGTTGATCGG
- binding result (SufR-R75M): binds
- binding result (SufR-M2 (AT-hook mutant)): no binding
- binding result [2]: no binding
- binding result (SufR-R51A): no binding

B2: PsufR-DM (dsDNA)
DNA 1: CCGATCAACGGAACTGTGTCACACTGATGTTGTGACAGTCCCGGCGGTCT
DNA 2: AGACCGCCGGGACTGTCACAACATCAGTGTGACACAGTTCCGTTGATCGG
- binding result [3]: no binding

B3: PsufR-PM (dsDNA)
DNA 1: CCGATCAACGGAATTTTGTCGAAGTGATGTCACTAAAATCCCGGCGGTCT
DNA 2: AGACCGCCGGGATTTTAGTGACATCACTTCGACAAAATTCCGTTGATCGG
- binding result [4]: binds
